# Source: publication PMC8242512
# Molecular target: soluble trimeric SARS-CoV-2 S glycoprotein, 2P-stabilized, lacking the furin cleavage site (SARS-CoV-2) (UniProt P0DTC2)
# Test: SPR; S protein captured on a Ni2+-loaded NTA chip; ACE2 as analyte, serial dilutions 200 nM to 3.125 nM in triplicate, 50 ul/min, HBS P+ buffer, association 300 s, dissociation 600 s; 1:1 binding model (Biacore Evaluation Software)
# Chain of truncated soluble angiotensin-converting enzyme 2 (hACE2) (Q9BYF1 18-626): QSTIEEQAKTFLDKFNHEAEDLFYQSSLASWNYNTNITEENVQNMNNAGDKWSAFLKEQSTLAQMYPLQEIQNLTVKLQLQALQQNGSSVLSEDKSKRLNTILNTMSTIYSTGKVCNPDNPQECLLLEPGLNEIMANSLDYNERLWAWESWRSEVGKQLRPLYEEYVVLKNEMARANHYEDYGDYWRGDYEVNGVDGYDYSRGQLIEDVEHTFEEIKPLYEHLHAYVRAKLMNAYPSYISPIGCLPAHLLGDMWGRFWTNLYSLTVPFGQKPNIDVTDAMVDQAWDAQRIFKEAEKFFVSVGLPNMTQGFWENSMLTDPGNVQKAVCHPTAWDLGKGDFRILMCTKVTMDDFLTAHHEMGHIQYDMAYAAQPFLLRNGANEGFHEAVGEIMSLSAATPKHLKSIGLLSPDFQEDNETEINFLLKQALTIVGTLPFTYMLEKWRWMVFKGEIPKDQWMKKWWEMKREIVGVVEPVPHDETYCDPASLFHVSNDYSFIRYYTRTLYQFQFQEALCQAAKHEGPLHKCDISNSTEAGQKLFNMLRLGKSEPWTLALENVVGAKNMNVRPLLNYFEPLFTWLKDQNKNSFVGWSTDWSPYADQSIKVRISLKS
substance,measurement,value
truncated soluble angiotensin-converting enzyme 2 (hACE2) (from UniProt Q9BYF1 18-626) (receptor),Kd,84 nM
